# Numbered stars: 1 amine (or outer) side, 2 acyl side, 3 side chain; on linkers, the order of the positions; unused ones are H or OH. Bridge positions count the residues as written; N and C are the ends. Square brackets hold non-standard residues; d marks the D form. * marks the point of attachment. C20 diacid = O=C(O)CCCCCCCCCCCCCCCCCCC(=O)*; γGlu = O=C(O)[C@H](CCC(=O)[*:2])N[*:1]
# What was measured:
# Assay in all cases: cell-based or functional assay
# rat NPRA [1] = biological target: T1, rat NPRA (rat, UniProt P18910 29-1057)
# T1 sequence (looked up): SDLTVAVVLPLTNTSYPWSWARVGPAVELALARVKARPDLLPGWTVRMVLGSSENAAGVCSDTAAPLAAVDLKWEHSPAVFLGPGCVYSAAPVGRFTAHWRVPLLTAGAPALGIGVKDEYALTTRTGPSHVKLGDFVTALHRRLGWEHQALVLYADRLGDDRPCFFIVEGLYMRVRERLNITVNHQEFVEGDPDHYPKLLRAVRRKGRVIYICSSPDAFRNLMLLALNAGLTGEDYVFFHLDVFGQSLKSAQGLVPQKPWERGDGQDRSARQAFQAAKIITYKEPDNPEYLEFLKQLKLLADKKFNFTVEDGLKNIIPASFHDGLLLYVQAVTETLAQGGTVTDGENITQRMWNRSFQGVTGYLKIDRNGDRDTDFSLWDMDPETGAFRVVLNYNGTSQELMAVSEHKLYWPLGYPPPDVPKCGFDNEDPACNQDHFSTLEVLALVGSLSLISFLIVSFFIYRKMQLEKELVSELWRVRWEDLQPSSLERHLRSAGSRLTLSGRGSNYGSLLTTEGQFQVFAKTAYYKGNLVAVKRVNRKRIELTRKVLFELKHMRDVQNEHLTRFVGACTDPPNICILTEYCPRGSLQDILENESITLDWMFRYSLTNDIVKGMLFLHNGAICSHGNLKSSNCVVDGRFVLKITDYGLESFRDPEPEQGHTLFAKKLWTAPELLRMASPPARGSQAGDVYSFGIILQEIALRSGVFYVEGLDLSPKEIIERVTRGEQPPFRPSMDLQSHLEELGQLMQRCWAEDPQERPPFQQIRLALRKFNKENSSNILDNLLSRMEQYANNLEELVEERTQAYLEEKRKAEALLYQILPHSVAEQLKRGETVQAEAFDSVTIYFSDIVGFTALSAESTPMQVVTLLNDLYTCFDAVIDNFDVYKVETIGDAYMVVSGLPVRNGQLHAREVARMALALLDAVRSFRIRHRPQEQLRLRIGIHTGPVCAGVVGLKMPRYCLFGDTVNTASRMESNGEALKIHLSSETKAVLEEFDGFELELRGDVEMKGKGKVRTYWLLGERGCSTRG
# human NPRA [2] = biological target: T2, human NPRA (human, UniProt P16066 33-1061)
# T2 sequence (looked up): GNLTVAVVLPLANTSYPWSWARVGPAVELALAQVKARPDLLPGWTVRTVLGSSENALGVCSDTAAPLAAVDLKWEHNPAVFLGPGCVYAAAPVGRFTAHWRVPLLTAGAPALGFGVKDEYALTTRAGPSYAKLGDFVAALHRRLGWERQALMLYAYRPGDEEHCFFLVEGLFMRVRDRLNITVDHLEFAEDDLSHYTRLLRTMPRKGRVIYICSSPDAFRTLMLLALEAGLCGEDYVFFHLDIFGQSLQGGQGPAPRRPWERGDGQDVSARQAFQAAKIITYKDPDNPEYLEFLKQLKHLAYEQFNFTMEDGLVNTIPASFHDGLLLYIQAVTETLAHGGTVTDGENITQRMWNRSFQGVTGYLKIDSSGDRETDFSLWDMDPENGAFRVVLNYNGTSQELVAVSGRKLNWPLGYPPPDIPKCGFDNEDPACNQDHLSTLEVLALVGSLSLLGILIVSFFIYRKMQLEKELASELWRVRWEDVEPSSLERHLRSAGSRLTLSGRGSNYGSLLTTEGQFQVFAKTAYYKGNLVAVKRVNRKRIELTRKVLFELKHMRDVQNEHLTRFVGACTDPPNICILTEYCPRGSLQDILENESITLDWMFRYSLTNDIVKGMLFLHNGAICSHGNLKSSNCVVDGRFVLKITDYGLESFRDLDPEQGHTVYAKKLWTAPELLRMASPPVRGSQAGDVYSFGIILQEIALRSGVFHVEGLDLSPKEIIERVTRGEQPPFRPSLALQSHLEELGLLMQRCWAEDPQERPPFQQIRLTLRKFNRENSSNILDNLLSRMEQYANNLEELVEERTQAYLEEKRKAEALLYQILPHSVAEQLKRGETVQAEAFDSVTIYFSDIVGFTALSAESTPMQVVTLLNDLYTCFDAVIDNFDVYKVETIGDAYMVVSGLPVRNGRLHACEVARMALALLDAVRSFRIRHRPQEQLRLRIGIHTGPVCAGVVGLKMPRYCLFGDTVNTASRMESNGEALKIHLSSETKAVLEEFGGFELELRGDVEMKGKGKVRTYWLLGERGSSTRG
# human NPRA [3] = biological target: T3, human NPRA (human, UniProt P16066 33-1061); remark: listed apart in the source
# T3 sequence (looked up): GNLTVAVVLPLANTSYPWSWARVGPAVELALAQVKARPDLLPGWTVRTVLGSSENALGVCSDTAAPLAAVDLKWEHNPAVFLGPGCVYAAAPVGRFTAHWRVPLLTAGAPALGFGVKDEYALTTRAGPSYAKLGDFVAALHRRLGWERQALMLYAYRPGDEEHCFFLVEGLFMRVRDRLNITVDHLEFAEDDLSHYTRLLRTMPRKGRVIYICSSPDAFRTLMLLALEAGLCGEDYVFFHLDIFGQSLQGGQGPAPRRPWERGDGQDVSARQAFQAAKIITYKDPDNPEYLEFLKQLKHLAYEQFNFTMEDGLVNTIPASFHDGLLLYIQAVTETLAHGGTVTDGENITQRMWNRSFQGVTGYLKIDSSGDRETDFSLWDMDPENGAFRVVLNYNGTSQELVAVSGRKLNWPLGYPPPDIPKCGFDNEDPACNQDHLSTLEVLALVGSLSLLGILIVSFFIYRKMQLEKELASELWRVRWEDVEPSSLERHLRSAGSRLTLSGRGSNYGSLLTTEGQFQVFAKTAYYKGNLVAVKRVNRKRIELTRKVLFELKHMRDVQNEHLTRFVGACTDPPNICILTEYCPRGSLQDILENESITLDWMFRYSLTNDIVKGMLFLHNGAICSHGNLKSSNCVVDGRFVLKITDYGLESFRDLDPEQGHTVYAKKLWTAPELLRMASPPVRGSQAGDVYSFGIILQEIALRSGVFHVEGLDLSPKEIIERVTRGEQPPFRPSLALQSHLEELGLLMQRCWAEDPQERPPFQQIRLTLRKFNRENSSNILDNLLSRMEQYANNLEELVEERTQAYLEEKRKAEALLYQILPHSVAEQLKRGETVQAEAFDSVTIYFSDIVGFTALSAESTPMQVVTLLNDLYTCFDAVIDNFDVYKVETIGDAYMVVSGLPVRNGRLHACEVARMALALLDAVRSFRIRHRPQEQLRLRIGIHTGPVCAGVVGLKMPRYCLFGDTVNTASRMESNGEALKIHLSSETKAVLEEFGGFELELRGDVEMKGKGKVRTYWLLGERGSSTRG
# rat NPRA [4] = biological target: T4, rat NPRA (rat, UniProt P18910 29-1057); remark: listed apart in the source
# T4 sequence (looked up): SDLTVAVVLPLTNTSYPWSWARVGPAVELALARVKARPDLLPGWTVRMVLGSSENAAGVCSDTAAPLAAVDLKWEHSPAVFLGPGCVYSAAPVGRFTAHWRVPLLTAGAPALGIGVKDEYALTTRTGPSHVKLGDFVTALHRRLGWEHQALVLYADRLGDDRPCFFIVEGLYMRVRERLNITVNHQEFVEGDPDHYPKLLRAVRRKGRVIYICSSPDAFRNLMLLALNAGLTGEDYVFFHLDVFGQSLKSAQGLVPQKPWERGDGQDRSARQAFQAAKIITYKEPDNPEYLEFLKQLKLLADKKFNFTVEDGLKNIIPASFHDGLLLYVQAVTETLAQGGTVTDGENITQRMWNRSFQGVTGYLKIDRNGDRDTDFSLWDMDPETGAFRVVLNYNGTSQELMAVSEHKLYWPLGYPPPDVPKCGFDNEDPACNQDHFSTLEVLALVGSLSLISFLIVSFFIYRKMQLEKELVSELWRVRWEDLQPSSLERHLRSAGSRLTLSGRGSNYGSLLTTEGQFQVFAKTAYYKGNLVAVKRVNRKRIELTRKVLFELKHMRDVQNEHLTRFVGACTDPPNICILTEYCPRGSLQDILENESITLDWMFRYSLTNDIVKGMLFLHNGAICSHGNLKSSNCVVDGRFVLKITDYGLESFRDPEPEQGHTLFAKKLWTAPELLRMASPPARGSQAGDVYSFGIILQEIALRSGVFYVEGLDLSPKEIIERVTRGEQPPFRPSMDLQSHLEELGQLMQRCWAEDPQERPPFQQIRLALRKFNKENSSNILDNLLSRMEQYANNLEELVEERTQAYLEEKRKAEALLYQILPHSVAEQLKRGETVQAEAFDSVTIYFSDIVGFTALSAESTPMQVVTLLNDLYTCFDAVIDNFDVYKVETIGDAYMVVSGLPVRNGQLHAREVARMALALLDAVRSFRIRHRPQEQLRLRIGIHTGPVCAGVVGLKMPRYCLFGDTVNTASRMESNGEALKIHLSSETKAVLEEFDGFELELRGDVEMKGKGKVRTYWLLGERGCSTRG
Binder,"cGMP Assay (EC50, pM) w/BSA (rat NPRA [1])","cGMP Assay (EC50, pM) w/Casein (rat NPRA [1])","cGMP Assay (EC50, pM) w/BSA (human NPRA [2])","cGMP Assay (EC50, pM) w/Casein (human NPRA [2])","cGMP Assay (EC50, pM) w/BSA, hNPRA (human NPRA [3])","cGMP Assay (EC50, pM) w/Casein, hNPRA (human NPRA [3])","cGMP Assay (EC50, pM) w/BSA, rNPRA (rat NPRA [4])","cGMP Assay (EC50, pM) w/Casein, rNPRA (rat NPRA [4])"
{C20 diacid}-[γGlu]EKEKEKGSHRRSSCFHGRIDRIHAQSGLGCNSFRH-NH2 (disulfide 15-31; SMILES CC[C@H](C)[C@@H]1NC(=O)[C@H](CCCNC(=N)N)NC(=O)[C@H](CC(=O)O)NC(=O)[C@H]([C@@H](C)CC)NC(=O)[C@H](CCCNC(=N)N)NC(=O)CNC(=O)[C@H](Cc2c[nH]cn2)NC(=O)[C@H](Cc2ccccc2)NC(=O)[C@@H](NC(=O)[C@H](CO)NC(=O)[C@H](CO)NC(=O)[C@H](CCCNC(=N)N)NC(=O)[C@H](CCCNC(=N)N)NC(=O)[C@H](Cc2c[nH]cn2)NC(=O)[C@H](CO)NC(=O)CNC(=O)[C@H](CCCCN)NC(=O)[C@H](CCC(=O)O)NC(=O)[C@H](CCCCN)NC(=O)[C@H](CCC(=O)O)NC(=O)[C@H](CCCCN)NC(=O)[C@H](CCC(=O)O)NC(=O)CC[C@H](NC(=O)CCCCCCCCCCCCCCCCCCC(=O)O)C(=O)O)CSSC[C@@H](C(=O)N[C@@H](CC(N)=O)C(=O)N[C@@H](CO)C(=O)N[C@@H](Cc2ccccc2)C(=O)N[C@@H](CCCNC(=N)N)C(=O)N[C@@H](Cc2c[nH]cn2)C(N)=O)NC(=O)CNC(=O)[C@H](CC(C)C)NC(=O)CNC(=O)[C@H](CO)NC(=O)[C@H](CCC(N)=O)NC(=O)[C@H](C)NC(=O)[C@H](Cc2c[nH]cn2)NC1=O) [Example 16],480000 pM,4070 pM,54700 pM,807 pM,,,,
EKXRSSCFGKRIDRIGHYSGLGCPSFRHGGKSSGAPPPS (N-terminus acylated with HOOC-(CH2)18-CO-(γGlu)-; PEG24 after EKEKEKG; βAla; thioacetal linkage between the two bracketed Cys; C-terminal amide) [HOOC-(CH2)18-CO-(γGlu)-EKEKEKG-PEG24-EK-βAla-RSS[CFGKRIDRIGHYSGLGC]PSFRHGGKSSGAPPPS-NH2],,,,,3490 pM,,,
EKXRSSCFGKRIDRIGHYSGLGCPSFRHGSPSSGAPPPS (N-terminus acylated with HOOC-(CH2)18-CO-(γGlu)-; PEG24 after EKEKEKG; βAla; thioacetal linkage between the two bracketed Cys; C-terminal amide) [HOOC-(CH2)18-CO-(γGlu)-EKEKEKG-PEG24-EK-βAla-RSS[CFGKRIDRIGHYSGLGC]PSFRHGSPSSGAPPPS-NH2],,,,,4330 pM,741 pM,187000 pM,9630 pM

# Reference: US20240174727A1, “LONG-ACTING NATRIURETIC PEPTIDES AND USES THEREOF” (Eli Lilly and Company, priority 2022, published 2024)
